± gives the uncertainty stated by the source.
Test: protein stability index of a GFP-peptide fusion (yeast GPS) (PSI 1-4); higher = more stable; sorted into four equal gates, so the index is relative within each strain
Method in brief: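 Sequencing reads from sorted gates were used to score each peptide. The library consisted of tiled 17-residue yeast protein peptides fused downstream of GFP on a Cherry-expressing plasmid, pooled and carried in yeast. Mid-log cultures in leucine-free medium were split into four equal gates by GFP/Cherry ratio, and each gate's plasmids were PCR-amplified and Illumina-sequenced. The protein stability index adds up, over all gates, the read frequency multiplied by the gate number.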

Sequence	protein stability index (doa10∆)	protein stability index (pdr5∆)	protein stability index (san1∆)	protein stability index (ubr1∆)
QGPIVADKNCAKLHRIS [PUP1]	3.41 ± 0.15	2.94 ± 0.088	2.79 ± 0.1	2.64 ± 0.072
KGEVYTIPLGGSVHKLP [PRE3]	2.97 ± 0.065	2.95 ± 0.082	2.84 ± 0.088	3.04 ± 0.044
SGMGPDYRVLVDKSRKV [PRE8]	3 ± 0.14	2.21 ± 0.19		2.98 ± 0.24
VSAAEDESLIRELYKYV [PRP28]	3.27 ± 0.11	3.27 ± 0.13	2.95 ± 0.084	2.94 ± 0.098
GGNFKDLSTLVHSSSPS [GAL11]	1.48 ± 0.056	1.46 ± 0.045	1.59 ± 0.089	1.38 ± 0.059
TGKTLLARACAAQTNAT [RPT5]	2.72 ± 0.13	2.92 ± 0.089	2.9 ± 0.096	2.61 ± 0.29
QACGLVKNLSLMSCISV [RPB2]	1.49 ± 0.073	1.75 ± 0.06	2.44 ± 0.083	2.17 ± 0.075
DGEGKVDSISLHKIFYK [YCG1]	2.78 ± 0.087	3.24 ± 0.064	3.13 ± 0.048	2.94 ± 0.063
YIHRIGRTGRAANEGTA [PRP28]	3.1 ± 0.11	3.29 ± 0.1	3.26 ± 0.053	3.29 ± 0.071
GPVAAQFTKVIDEPIKS [FAS1]	1.8 ± 0.2	2.41 ± 0.092	2.15 ± 0.14	2 ± 0.052
GPVVAGINSKSGKPFIA [PUP3]	3.18 ± 0.13	3.27 ± 0.11	2.99 ± 0.18	3.05 ± 0.11
ALDIVCSDFVKILNLEK [NUT1]	2.7 ± 0.069	2.7 ± 0.07	2.35 ± 0.11	2.29 ± 0.099
IRKLVKNGTIVKKAVTV [RPL19A]	2.88 ± 0.17	3.08 ± 0.12	3.15 ± 0.12	3.28 ± 0.072
PTDSSKILQKRSISKEL [SIR3]	2.76 ± 0.066	2.98 ± 0.086	3.02 ± 0.065	2.85 ± 0.081
FPPPSVAARAEILRIHS [RPT6]	1.72 ± 0.074	2.5 ± 0.085	1.54 ± 0.12	1.74 ± 0.046
RDRKLITDKGTVDGRLY [YJL039C/NUP192]	3.16 ± 0.12	3.22 ± 0.074	3.19 ± 0.071	3.17 ± 0.076
ANALGGLGVNRRILAAA [SSN3]	1.77 ± 0.068	1.69 ± 0.069	1.58 ± 0.16	1.92 ± 0.046
TEAAFTKLDQVWGSETV [RPL4A]	1.84 ± 0.18	1.87 ± 0.11	3.07 ± 0.067	2.15 ± 0.14
LEILIVTKDGVRKEFYE [PRE7]	2.91 ± 0.063	2.54 ± 0.049	3.14 ± 0.043	2.92 ± 0.049
RRYKLLTATPNSINKTT [POP1]	2 ± 0.046	2.38 ± 0.049	2.4 ± 0.065	2.52 ± 0.042
SRDELIRLAKTLKKNNV [RPN10]	1.77 ± 0.086	1.81 ± 0.091	2.42 ± 0.17	2.07 ± 0.089
RRWNKLCTLNDSKGSLY [YGL100W/SEH1]	3.31 ± 0.078	3.24 ± 0.072	2.91 ± 0.078	3.1 ± 0.046
KTKWDRKPMGKRINFEK [POP1]	2.84 ± 0.11	3.35 ± 0.075	2.75 ± 0.23	3 ± 0.17
QNRSLQEHNIQDSNVMP [SNF2]	3.19 ± 0.057	3.08 ± 0.053	2.92 ± 0.04	3.31 ± 0.04
SIPNLFPTDLEIFQLFT [SWI1]	2.6 ± 0.14	2.22 ± 0.12	2.27 ± 0.12	3.09 ± 0.19
FDLVRNIVKQNEGIDLD [SMC2]	3.11 ± 0.13	3.51 ± 0.12	3.24 ± 0.081	3.45 ± 0.1
RQCFQDNCCDFKVRTNL [MED1]	3.28 ± 0.053	3.23 ± 0.063	3.42 ± 0.04	3.21 ± 0.038

Sequence	protein stability index (doa10∆)	protein stability index (pdr5∆)	protein stability index (san1∆)	protein stability index (ubr1∆)
LNARMFLKYYGAHKFLD [SIR2]	1.89 ± 0.092	1.68 ± 0.097	1.21 ± 0.12	1.69 ± 0.066
CSRIIKIDKPIRTQVNT [RGR1]	1.94 ± 0.067	2.31 ± 0.047	2.09 ± 0.059	2.1 ± 0.039
ISLLKNRRKQSFVLNKN [RPN4]	3.52 ± 0.25	3.06 ± 0.25	3.04 ± 0.15	3.21 ± 0.14
TDLRLSTNGLGMCQLYF [SNU114]	3.48 ± 0.12	3.52 ± 0.13	2.98 ± 0.23	3.08 ± 0.21
SQDATKVDATPEESKPI [YLR335W/NUP2]	2.87 ± 0.12	3.17 ± 0.089	2.81 ± 0.08	3.18 ± 0.06
DFDLLNKTLTFETETEV [FAS1]	3.34 ± 0.079	3.37 ± 0.067	3.44 ± 0.045	3.3 ± 0.051
KKEANLFPEQQNKEIKA [RPL6A]	3.38 ± 0.12	3.43 ± 0.088	3.21 ± 0.076	3.3 ± 0.093
VGTAIDSILNYAKSEFD [ECM29]	2.76 ± 0.2	2.77 ± 0.1	2.92 ± 0.25	3.08 ± 0.088
ISVGESGDRLTRASKVL [RPL11A]		3.08 ± 0.19		3.4 ± 0.22
IWLIKCCYFIEWKSNHK [SRB8]	1.69 ± 0.067	2.12 ± 0.063	2.55 ± 0.063	2.59 ± 0.15
SVSSPIELNFDAVKDFK [QCR2]	1.89 ± 0.069	1.67 ± 0.065	2.5 ± 0.09	1.57 ± 0.053
AMHNSKAASSTRIFQAL [POP1]	2.59 ± 0.093	2.54 ± 0.078	2.87 ± 0.14	2.89 ± 0.11
LFKKITNVNPSKNFNVI [YML103C/NUP188]	2.63 ± 0.048	2.37 ± 0.038	2.73 ± 0.042	2.39 ± 0.036
FMDVITLDATNENFRLV [RPS4A]		3.44 ± 0.28	2.72 ± 0.25	3 ± 0.18
VSNPGDNPPPADNGEEY [MED2]	3.14 ± 0.071	2.86 ± 0.1	3.13 ± 0.074	3.29 ± 0.11
KKIREIYRYDEMSNKVL [BRR2]	2.92 ± 0.097	3.06 ± 0.13	2.62 ± 0.086	3.08 ± 0.045
MARRPARCYRYQKNKPY [RPL10]	2.17 ± 0.092	2.13 ± 0.11	2.32 ± 0.092	2.4 ± 0.1
GPGGQAALRALARSGLR [RPS14B]	2.41 ± 0.081	2.59 ± 0.11	2.22 ± 0.11	2.48 ± 0.085
LQLIIFLRTQFLKLYVL [RGR1]	1.25 ± 0.1	1.4 ± 0.11	1.53 ± 0.12	1.41 ± 0.091
FELVSDLSYIEFLFESL [ECM29]	2.88 ± 0.067	2.74 ± 0.077	2.97 ± 0.062	2.87 ± 0.049
LKKVQQQQQAAALANAN [SWI1]	1.83 ± 0.063	2.45 ± 0.081	2.1 ± 0.073	1.78 ± 0.064
QLNEERSRYRREIDALK [YIL149C/MLP2]	3.44 ± 0.092	3.25 ± 0.065	3.24 ± 0.045	3.25 ± 0.035
KLVLNISVGESGDRLTR [RPL11A]			2.6 ± 0.2	1.08 ± 0.14
SVKFTHIAHTLPEKVNF [SSN2]	2.17 ± 0.05	2.28 ± 0.042	2.2 ± 0.066	1.92 ± 0.029
PRRFGKGSRQCRVCSSH [RPS29B]	2.96 ± 0.061	3.06 ± 0.038	2.97 ± 0.043	2.912 ± 0.029
ESKDSIQDLIVKLKQQK [SMC3]	3.35 ± 0.1	3.12 ± 0.13	3.09 ± 0.14	3.35 ± 0.15
VDSGSNDAMAGGFTAYG [RPO21]	3.26 ± 0.16		3.37 ± 0.26	
